Laboratory results from publication PMC10381965.

Biological target: CENP-ΔQU complex (CENP-Q^1–294 and CENP-U^30–266) (S. cerevisiae) (UniProt P53298)
Assay: ITC; CENP-A^END peptides (0.87 to 2.18 mM) titrated into CENP-QU (66 to 180 μM) in the cell; 20°C; 20 mM Hepes pH 7.5, 100 mM NaCl, 1 mM TCEP; single-site binding model; triplicate

| Binder | Kd [nM] | fold reduction of affinity against the unchanged CENP-A^END peptide [fold] |
| --- | --- | --- |
| Ac-DASINDRALSLLQRTRATDAW-NH2 [CENP-A^END-1 peptide] | 11500 |  |
| Ac-AGDQQSINDRALSLLQRTRATKNW-NH2 [CENP-A^END-2 peptide] | 1000 |  |
| Ac-AGDQQSINDRALSLLQRTRATKNLFPRREERRRW-NH2 [CENP-A^END-3 peptide] | 720 |  |
| Ac-AGDQQSINDAALSLLQRTRATKNW-NH2 [CENP-A^END-2-R37A peptide] |  | 15 |
